Where a chain is given by its changes, count along the chain named. Numbers in names are those of the source.
B1: HIM-3 (wildtype, residues 2-291) (natural protein)
chain: ATKEQIVEHRESEIPIASQWKATFPVDLEIEKNSEMFALRYIKCASAFILDRRGILDEKCFKTRTIDKLLVTAFQSSVPAAKRVSSTFDGLRDAIQQGYLREFAIVFYKKPNEEDINEVFAFRFAYGDEGEIFVSLNNGIDTNESSQELLQAKFVDTDNTKQMFASTIKKLHRCIKKMEPLPQGSDASFRVSYTEKAPKDYTPEGYLLSPMFYTLNQDIRKASIGIVCGGHHKIQMLAASQYLKQDFDLDKTTTLNPNMSIMANQSKRKGRISRDSPYGLSQGITKKNKD
B2: HIM-3^R93Y (residues 2-291) (natural protein)
chain: B1 chain with R92Y

Target: peptide encoding HTP-3 closure motif #4 (C. elegans)
Assay: fluorescence polarisation; 50 nM N-terminal FITC-Ahx peptide plus indicated amounts of HIM-3 (WT or R93Y); 20 mM Tris pH 7.5, 300 mM NaCl, 10% glycerol, 1 mM DTT, 0.1% NP-40; 60 minutes at room temperature; triplicate; single-site binding model

Binder | Kd
B1 | 220 nM
B2 | 690 nM

Reference: paper PMC10132761
